Data: IntAct's records for PubMed 24338975

B1: G-rich sequence factor 1 (Homo sapiens), Q12849 (parent)
chain: MAGTRWVLGALLRGCGCNCSSCRRTGAACLPFYSAAGSIPSGVSGRRRLLLLLGAAAAAASQTRGLQTGPVPPGRLAGPPAVATSAAAAAAASYSALRASLLPQSLAAAAAVPTRSYSQESKTTYLEDLPPPPEYELAPSKLEEEVDDVFLIRAQGLPWSCTMEDVLNFFSDCRIRNGENGIHFLLNRDGKRRGDALIEMESEQDVQKALEKHRMYMGQRYVEVYEINNEDVDALMKSLQVKSSPVVNDGVVRLRGLPYSCNEKDIVDFFAGLNIVDITFVMDYRGRRKTGEAYVQFEEPEMANQALLKHREEIGNRYIEIFPSRRNEVRTHVGSYKGKKIASFPTAKYITEPEMVFEEHEVNEDIQPMTAFESEKEIELPKEVPEKLPEAADFGTTSSLHFVHMRGLPFQANAQDIINFFAPLKPVRITMEYSSSGKATGEADVHFETHEDAVAAMLKDRSHVHHRYIELFLNSCPKGK

Variants of: B1
Details: with psd10_human PSMD10, O75832
Sequence of psd10_human PSMD10, O75832 (O75832 whole entry): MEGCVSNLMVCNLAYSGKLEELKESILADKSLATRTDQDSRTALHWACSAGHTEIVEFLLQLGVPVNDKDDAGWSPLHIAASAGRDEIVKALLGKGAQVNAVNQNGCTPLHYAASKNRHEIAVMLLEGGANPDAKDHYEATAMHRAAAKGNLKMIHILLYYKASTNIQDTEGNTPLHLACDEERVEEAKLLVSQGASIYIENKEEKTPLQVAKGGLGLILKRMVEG

effect of a mutation on the interaction	Variant
disrupting interaction strength	E144A;E145A;D147A
